Experimental data: PMC6899190 (Nature structural & molecular biology, 2019)

How the values were obtained:
[1] = target: MBP-tagged Vif–CBFβ–EloB–EloC complex (wild type) (HIV-1 (pNL4–3) | human | , UniProt P12504;Q13951-2;Q15370;Q15369); experiment: pull-down
[2] = target: MBP-tagged Vif–CBFβ–EloB–EloC complex with CBFβ E54K (HIV-1 (pNL4–3) | human | , UniProt P12504;Q13951-2;Q15370;Q15369, E54K); experiment: pull-down
[3] = target: truncated Vif–CBFβ subcomplex (Vif176Δ114–157 with CBFβ151) (HIV-1 (pNL4–3) | human, UniProt P12504;Q13951); experiment: SEC

Row | Binder | binding result [1] | binding result [2] | binding result [3]
1 | A3F_(CTDm) D260R/D261R (domain or fragment) KEILRNPMEAMDPHIFYFHFKNLRKAYGRNESWLCFTMEVVKHHSPVSWKRGVFRNQVDPETGRHAERCFLSWFCRRILSPNTNYEVTWYTSWSPCPECAGEVAEFLARHSNVNLTIKTARLYYFKDTDAAEGLRSLSQEGASVEIMGYKDFKYCWENFVYNDDEPFKPWDGLDYNFLDLDSKLQEILE | binds |  | 
2 | A3F_(CTDm) R293D (domain or fragment) KEILRNPMEAMDPHIFYFHFKNLRKAYGRNESWLCFTMEVVKHHSPVSWKRGVFRNQVDPETGRHAERCFLSWFCDDILSPNTNYEVTWYTSWSPCPECAGEVAEFLADHSNVNLTIKTARLYYFKDTDAAEGLRSLSQEGASVEIMGYKDFKYCWENFVYNDDEPFKPWDGLDYNFLDLDSKLQEILE |  | binds | 
3 | A3F_(CTDm) D347R (domain or fragment) KEILRNPMEAMDPHIFYFHFKNLRKAYGRNESWLCFTMEVVKHHSPVSWKRGVFRNQVDPETGRHAERCFLSWFCDDILSPNTNYEVTWYTSWSPCPECAGEVAEFLARHSNVNLTIKTARLYYFKDTDAAEGLRSLSQEGASVEIMGYKDFKYCWENFVYNRDEPFKPWDGLDYNFLDLDSKLQEILE | binds |  | binds
4 | A3F_(CTDm) P265A (domain or fragment) KEILRNPMEAMDPHIFYFHFKNLRKAYGRNESWLCFTMEVVKHHSPVSWKRGVFRNQVDPETGRHAERCFLSWFCDDILSANTNYEVTWYTSWSPCPECAGEVAEFLARHSNVNLTIKTARLYYFKDTDAAEGLRSLSQEGASVEIMGYKDFKYCWENFVYNDDEPFKPWDGLDYNFLDLDSKLQEILE | binds |  | 
